Laboratory results reported in patent US20200385439A1.
Ends that are not written are not given here.

Columns and labels:
Assay in all cases: cell-based or functional assay
[1] = molecular target: cynomolgus monkey glucagon receptor (cynomolgus monkey)
[2] = molecular target: rat glucagon receptor (rat) (UniProt P30082)
[3] = molecular target: human glucagon receptor (human) (UniProt P47871)
[4] = molecular target: mouse GLP1 receptor (mouse) (UniProt O35659)
[5] = molecular target: mouse glucagon receptor (mouse) (UniProt Q61606)
mouse glucagon receptor (mouse), sequence (Q61606 27-485): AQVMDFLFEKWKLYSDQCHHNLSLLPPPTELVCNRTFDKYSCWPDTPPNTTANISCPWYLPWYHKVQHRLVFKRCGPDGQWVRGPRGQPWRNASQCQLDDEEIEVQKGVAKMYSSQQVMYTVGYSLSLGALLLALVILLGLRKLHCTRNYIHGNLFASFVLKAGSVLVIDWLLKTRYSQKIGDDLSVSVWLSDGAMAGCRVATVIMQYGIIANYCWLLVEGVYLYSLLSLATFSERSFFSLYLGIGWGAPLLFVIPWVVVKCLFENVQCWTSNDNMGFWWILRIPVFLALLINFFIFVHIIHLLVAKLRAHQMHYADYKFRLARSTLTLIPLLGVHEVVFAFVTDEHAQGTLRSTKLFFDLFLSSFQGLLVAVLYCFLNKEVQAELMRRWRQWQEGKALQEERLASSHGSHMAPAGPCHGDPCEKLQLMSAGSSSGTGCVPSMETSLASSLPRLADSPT

[6] = molecular target: human Y1 receptor (human) (UniProt P25929)
human Y1 receptor (human), sequence (P25929 whole entry): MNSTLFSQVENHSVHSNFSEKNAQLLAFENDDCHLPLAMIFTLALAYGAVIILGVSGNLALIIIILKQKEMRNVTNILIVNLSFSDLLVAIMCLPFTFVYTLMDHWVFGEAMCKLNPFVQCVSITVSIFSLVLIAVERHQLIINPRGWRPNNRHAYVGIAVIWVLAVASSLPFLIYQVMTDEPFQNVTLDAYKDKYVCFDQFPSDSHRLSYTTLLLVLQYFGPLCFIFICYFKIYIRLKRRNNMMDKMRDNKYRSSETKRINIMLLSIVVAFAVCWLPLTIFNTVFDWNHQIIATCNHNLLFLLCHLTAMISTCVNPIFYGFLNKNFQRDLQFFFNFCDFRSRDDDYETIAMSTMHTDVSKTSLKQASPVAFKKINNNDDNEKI

[7] = molecular target: rhesus monkey Y2 receptor (rhesus monkey) (UniProt Q9GK74)
rhesus monkey Y2 receptor (rhesus monkey), sequence (Q9GK74 whole entry): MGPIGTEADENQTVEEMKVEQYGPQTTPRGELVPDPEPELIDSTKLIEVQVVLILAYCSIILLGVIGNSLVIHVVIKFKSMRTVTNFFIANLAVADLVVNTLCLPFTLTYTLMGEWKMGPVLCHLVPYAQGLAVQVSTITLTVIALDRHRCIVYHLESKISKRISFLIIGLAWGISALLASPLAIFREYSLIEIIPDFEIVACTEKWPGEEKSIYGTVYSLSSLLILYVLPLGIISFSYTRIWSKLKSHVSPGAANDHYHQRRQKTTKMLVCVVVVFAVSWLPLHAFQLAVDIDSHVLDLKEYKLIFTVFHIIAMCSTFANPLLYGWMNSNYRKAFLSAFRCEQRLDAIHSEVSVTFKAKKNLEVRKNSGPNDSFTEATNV

[8] = molecular target: mouse Y2 receptor (mouse) (UniProt P97295)
mouse Y2 receptor (mouse), sequence (P97295 whole entry): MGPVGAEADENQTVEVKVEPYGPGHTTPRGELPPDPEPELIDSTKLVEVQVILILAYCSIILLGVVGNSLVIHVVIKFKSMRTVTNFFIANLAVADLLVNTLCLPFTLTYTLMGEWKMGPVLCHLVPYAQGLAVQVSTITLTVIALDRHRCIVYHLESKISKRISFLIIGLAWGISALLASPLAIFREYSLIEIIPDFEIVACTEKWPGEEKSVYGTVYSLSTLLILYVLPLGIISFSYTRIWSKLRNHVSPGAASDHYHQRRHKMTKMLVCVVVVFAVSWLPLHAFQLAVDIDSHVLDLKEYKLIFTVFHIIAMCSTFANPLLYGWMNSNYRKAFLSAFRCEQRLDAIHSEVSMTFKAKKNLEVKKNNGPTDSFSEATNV

[9] = molecular target: CRHR2
[10] = molecular target: CRHR1
[11] = molecular target: cynomolgus monkey GLP1 receptor (cynomolgus monkey) (UniProt F8V479)
[12] = molecular target: T1, CALCR
T1 sequence (P30988 1-474, species assumed, looked up): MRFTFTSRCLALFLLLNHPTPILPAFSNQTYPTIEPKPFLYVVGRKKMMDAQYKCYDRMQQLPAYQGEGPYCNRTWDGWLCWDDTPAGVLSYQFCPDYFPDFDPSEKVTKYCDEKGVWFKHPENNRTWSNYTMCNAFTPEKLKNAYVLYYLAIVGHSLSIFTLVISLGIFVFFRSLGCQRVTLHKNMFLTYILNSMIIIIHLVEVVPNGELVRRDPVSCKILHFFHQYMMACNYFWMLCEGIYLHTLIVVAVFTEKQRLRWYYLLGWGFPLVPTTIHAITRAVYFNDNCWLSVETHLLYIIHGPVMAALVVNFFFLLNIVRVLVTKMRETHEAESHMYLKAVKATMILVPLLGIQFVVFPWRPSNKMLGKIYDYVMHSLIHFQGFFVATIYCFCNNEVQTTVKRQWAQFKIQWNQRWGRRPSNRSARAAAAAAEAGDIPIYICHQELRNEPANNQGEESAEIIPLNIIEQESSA

Dulaglutide (Fc fusion), sequence (chain): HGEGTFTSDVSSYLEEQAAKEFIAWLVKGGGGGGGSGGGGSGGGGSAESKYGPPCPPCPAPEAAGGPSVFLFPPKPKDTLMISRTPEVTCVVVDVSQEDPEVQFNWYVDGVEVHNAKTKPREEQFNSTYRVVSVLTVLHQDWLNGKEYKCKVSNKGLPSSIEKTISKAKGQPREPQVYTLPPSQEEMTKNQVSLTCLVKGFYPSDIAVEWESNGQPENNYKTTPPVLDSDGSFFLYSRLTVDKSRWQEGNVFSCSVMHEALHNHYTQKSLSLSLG
mouse GLP1 receptor (mouse), sequence (O35659 22-463): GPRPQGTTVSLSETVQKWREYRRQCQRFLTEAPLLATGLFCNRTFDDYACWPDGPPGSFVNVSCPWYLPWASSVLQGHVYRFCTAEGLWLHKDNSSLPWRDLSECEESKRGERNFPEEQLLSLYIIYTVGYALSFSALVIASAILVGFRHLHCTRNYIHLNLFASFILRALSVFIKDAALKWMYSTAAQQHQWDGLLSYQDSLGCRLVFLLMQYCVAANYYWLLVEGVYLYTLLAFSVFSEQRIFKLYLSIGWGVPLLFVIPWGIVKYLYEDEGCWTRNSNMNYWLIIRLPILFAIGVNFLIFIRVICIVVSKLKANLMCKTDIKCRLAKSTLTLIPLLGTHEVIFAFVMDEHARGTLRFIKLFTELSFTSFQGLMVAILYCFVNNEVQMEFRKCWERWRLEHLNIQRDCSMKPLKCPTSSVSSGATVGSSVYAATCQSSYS
rat glucagon receptor (rat), sequence (P30082 27-485): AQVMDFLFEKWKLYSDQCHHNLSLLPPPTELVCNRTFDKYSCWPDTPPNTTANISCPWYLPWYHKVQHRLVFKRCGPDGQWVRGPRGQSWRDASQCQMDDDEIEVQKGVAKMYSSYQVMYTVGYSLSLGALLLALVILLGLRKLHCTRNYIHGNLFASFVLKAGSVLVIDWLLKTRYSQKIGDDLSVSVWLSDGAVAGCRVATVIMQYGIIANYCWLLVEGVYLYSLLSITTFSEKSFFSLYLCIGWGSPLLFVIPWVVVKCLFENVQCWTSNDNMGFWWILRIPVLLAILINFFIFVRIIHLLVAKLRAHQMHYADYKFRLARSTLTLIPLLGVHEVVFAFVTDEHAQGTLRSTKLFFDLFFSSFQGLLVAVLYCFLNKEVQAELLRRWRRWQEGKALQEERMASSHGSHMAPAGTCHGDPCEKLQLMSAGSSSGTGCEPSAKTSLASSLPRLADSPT
human glucagon receptor (human), sequence (P47871 26-477): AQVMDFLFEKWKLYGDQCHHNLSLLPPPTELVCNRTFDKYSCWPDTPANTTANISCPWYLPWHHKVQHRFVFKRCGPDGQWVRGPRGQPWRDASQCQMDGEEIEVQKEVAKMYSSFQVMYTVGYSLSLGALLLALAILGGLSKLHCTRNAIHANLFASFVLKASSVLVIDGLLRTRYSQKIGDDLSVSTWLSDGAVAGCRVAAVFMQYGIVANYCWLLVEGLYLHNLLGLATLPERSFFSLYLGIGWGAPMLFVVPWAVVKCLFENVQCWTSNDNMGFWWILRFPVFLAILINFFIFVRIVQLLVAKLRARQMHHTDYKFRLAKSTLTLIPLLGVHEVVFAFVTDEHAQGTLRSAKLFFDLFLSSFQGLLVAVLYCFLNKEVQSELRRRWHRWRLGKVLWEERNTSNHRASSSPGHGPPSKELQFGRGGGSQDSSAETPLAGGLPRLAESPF

Question: How did the EC50, receptor cAMP assay [1] turn out when Dulaglutide (Fc fusion) was run?
Answer: > 100000 pM

Question: And the EC50, receptor cAMP assay [2]?
Answer: > 100000 pM

Question: What about the EC50, receptor cAMP assay [3] of the same molecule?
Answer: > 100000 pM

Question: What about the EC50, receptor cAMP assay [4] of the same molecule?
Answer: 35 pM

Question: What about the EC50, receptor cAMP assay [5] of the same molecule?
Answer: > 100000 pM

Question: Which results are given for “PYY3-36 (from UniProt P10082 31-64) (peptide)”?
Answer: EC50, cAMP assay (LANCE) on receptor-expressing cells [6]: 66400 pM; EC50, cAMP assay (LANCE) on receptor-expressing cells [7]: 60 pM; EC50, cAMP assay (LANCE) on receptor-expressing cells [8]: 30 pM

Question: What does the source list for Sauvagine (peptide)?
Answer: RC50, cAMP assay [9]: 0.0034 µM; RC50, cAMP assay [10]: 0.000308 µM

Question: What does the source list for Sauvagine (peptide; unit assumed)?
Answer: Max response, cAMP assay [9]: 107%; Max response, cAMP assay [10]: 106%

Question: With “Ser-8 GLP1 (from UniProt P01275 98-127) (peptide)” as the molecule, how does the EC50, receptor cAMP assay [1] read?
Answer: > 100000 pM

Question: What about the EC50, receptor cAMP assay [2] of the same molecule?
Answer: > 100000 pM

Question: And the EC50, receptor cAMP assay [11]?
Answer: 80 pM

Question: And the EC50, receptor cAMP assay [4]?
Answer: 60 pM

Question: What about the EC50, receptor cAMP assay [5] of the same molecule?
Answer: > 100000 pM

Question: CGNLSTCMLGTYTQDFNKFHTFPQTAIGVGAP (peptide, UniProt P01258 85-116, looked up, species assumed, ends and bridges not checked; cysteine pairing not given here) [Calcitonin] was tested. Which Max response, cAMP assay [12] did it give?
Answer: 101%

Question: And the RC50, cAMP assay [12]?
Answer: 0.000776 µM
